± gives the uncertainty stated by the source.
Assay: self-splicing fitness, log relative to wild type (ln ratio); higher = more splicing; Tetrahymena group I intron in knt gene, E. coli kanamycin selection, DiMSum; sequences stand for … in CUCUCU…GGAGGGAAAAGUUAUCAGGCAUGCACCUGGUAGCUAGUCUUUAAACCAAUAGAUUGCAUCGGUUUAAAAGGCAAGACCGUCAAAUUGCGGGAAAGGGGUCAACAGCCGUUCAGUACCAAGUCUCAGGGGAAACUUUGAGAUGGCCUUGCAAAGGGUAUGGUAAUAAGCUGACGGACAUGGUCCUAACCACGCAGCCAAGUCCUAAGUCAACAGAUCUUCUGUUGAUAUGGAUGCAGUUCACAGACUAAAUGUCGGUCGGGGAAGAUGUAUUCUUCUCAUAAGAUAUAGUCGGACCUCUCCUUAAUGGGAGCUAGCGGAUGAAGUGAUGCAACACUGGAGCCGCUGGGAACUAAUUUGUAUGCGAAAGUAUAUUGAUUAGUUUUGGAGUACUCGUGGUCG
How it was run: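 Pooled colonies went to amplicon sequencing on an Illumina HiSeq 2500 after six replicate transformations. The plates were LB agar with 100 μg/mL carbenicillin, 50 μM IPTG and 0.2% rhamnose, with or without 25 μg/mL kanamycin, incubated overnight at 37°C or 30°C. The E. coli BL21(DE3) library had all eight P1ex-region intron nucleotides randomised, the intron placed in the knt kanamycin-resistance gene on pET-22b(+). DiMSum fitness is the error-weighted combination of replicate fold changes, kanamycin against none, normalised to wild type.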

Row | Sequence | self-splicing fitness (ln) (30 °C) | self-splicing fitness (ln) (37 °C)
1 | AGAUAGCAAUAUUACGCCCU | -0.337 ± 0.19 | 0.138 ± 0.21
2 | AGAUAGCAAUAUUACGCCUC | -3.23 ± 0.26 | -2.26 ± 0.29
3 | AGAUAGCAAUAUUACGCGCU | -2.31 ± 0.12 | -1.44 ± 0.14
4 | AGAUAGCAAUAUUACGCUCA | -0.765 ± 0.087 | -0.082 ± 0.11
5 | AGAUAGCAAUAUUACGCUUA | -0.901 ± 0.15 | -1.08 ± 0.13
6 | AGAUAGCAAUAUUACGCUUU | -0.847 ± 0.11 | -1.2 ± 0.16
7 | AGAUAGCAAUAUUACGGCCG | -0.583 ± 0.13 | -0.128 ± 0.23
8 | AGAUAGCAAUAUUACGGGGG | -3.43 ± 0.28 | -2.15 ± 0.29
9 | AGAUAGCAAUAUUACGGGUC | -3.73 ± 0.25 | -2.36 ± 0.25
10 | AGAUAGCAAUAUUACGGUGC | -4.21 ± 0.31 | -0.624 ± 0.15
11 | AGAUAGCAAUAUUACGUCUG | -0.398 ± 0.062 | -0.143 ± 0.076
12 | AGAUAGCAAUAUUACGUGAC | -3.44 ± 0.23 | -2.71 ± 0.48
13 | AGAUAGCAAUAUUACGUUGG | -4.65 ± 0.46 | -2.57 ± 0.2
14 | AGCAAGCAAUAUUACGAAAU | -2.42 ± 0.098 | -1.51 ± 0.12
15 | AGCAAGCAAUAUUACGAACG | -0.526 ± 0.083 | -0.449 ± 0.1
16 | AGCAAGCAAUAUUACGAAUA | -2.74 ± 0.26 | -0.872 ± 0.16
17 | AGCAAGCAAUAUUACGACUC | -1.12 ± 0.072 | -0.865 ± 0.08
18 | AGCAAGCAAUAUUACGACUG | -0.672 ± 0.077 | -0.735 ± 0.1
19 | AGCAAGCAAUAUUACGAGAA | – | -2.27 ± 0.4
20 | AGCAAGCAAUAUUACGAGGG | -3.29 ± 0.1 | -2.58 ± 0.15
21 | AGCAAGCAAUAUUACGAGGU | -3.87 ± 0.42 | -1.96 ± 0.2
22 | AGCAAGCAAUAUUACGAGUU | -2.98 ± 0.16 | -1.55 ± 0.16
23 | AGCAAGCAAUAUUACGAUCG | 0.481 ± 0.09 | -0.163 ± 0.12
24 | AGCAAGCAAUAUUACGAUUU | -0.00633 ± 0.054 | 0.677 ± 0.08
25 | AGCAAGCAAUAUUACGGAUA | -3.3 ± 0.28 | -1.77 ± 0.19
26 | AGCAAGCAAUAUUACGGGAC | -3.76 ± 0.33 | -2.24 ± 0.29

Row | Sequence | self-splicing fitness (ln) (30 °C) | self-splicing fitness (ln) (37 °C)
27 | AGCAAGCAAUAUUACGGGAU | -2.79 ± 0.098 | -1.15 ± 0.081
28 | AGCAAGCAAUAUUACGGGGC | -3.92 ± 0.29 | -2.89 ± 0.3
29 | AGCAAGCAAUAUUACGGGUA | -1.32 ± 0.081 | -0.594 ± 0.09
30 | AGCAAGCAAUAUUACGGUCU | -0.739 ± 0.069 | 0.0318 ± 0.085
31 | AGCAAGCAAUAUUACGGUUA | -0.707 ± 0.08 | 0.127 ± 0.08
32 | AGCAAGCAAUAUUACGGUUG | -3.23 ± 0.17 | -1.32 ± 0.16
33 | AGCAAGCAAUAUUACGUAAC | -5.08 ± 0.25 | -2.09 ± 0.14
34 | AGCAAGCAAUAUUACGUAGU | -3.18 ± 0.18 | -2.14 ± 0.19
35 | AGCAAGCAAUAUUACGUCCA | -1.62 ± 0.12 | 0.0058 ± 0.17
36 | AGCAAGCAAUAUUACGUGCC | – | -1.63 ± 0.27
37 | AGCAAGCAAUAUUACGUGCG | -1.25 ± 0.069 | -1.05 ± 0.087
38 | AGCAAGCAAUAUUACGUGGA | -2.85 ± 0.15 | -1.85 ± 0.12
39 | AGCAAGCAAUAUUACGUUCC | -1.21 ± 0.12 | -0.544 ± 0.13
40 | AGCCAGCAAUAUUACGAAAG | -3.13 ± 0.22 | -3.22 ± 0.38
41 | AGCCAGCAAUAUUACGACAG | -3.67 ± 0.27 | -2.74 ± 0.27
42 | AGCCAGCAAUAUUACGAGAG | -4.55 ± 0.27 | -3.02 ± 0.21
43 | AGCCAGCAAUAUUACGAGCG | -1.36 ± 0.095 | -0.0302 ± 0.13
44 | AGCCAGCAAUAUUACGCACU | -0.425 ± 0.094 | -0.259 ± 0.12
45 | AGCCAGCAAUAUUACGCUCU | -1.94 ± 0.1 | -0.912 ± 0.13
46 | AGCCAGCAAUAUUACGCUGA | -2.75 ± 0.16 | -1.87 ± 0.15
47 | AGCCAGCAAUAUUACGGGGG | -3.73 ± 0.24 | -1.99 ± 0.21
48 | AGCCAGCAAUAUUACGGGGU | -4.08 ± 0.19 | -2.22 ± 0.15
49 | AGCCAGCAAUAUUACGGUCC | -1.12 ± 0.081 | -0.461 ± 0.12
50 | AGCCAGCAAUAUUACGUAAG | -2.38 ± 0.057 | -1.34 ± 0.078
51 | AGCCAGCAAUAUUACGUAGU | -2.72 ± 0.12 | -1.83 ± 0.14
52 | AGCCAGCAAUAUUACGUAUG | -2.08 ± 0.089 | -3.2 ± 0.19

Row | Sequence | self-splicing fitness (ln) (30 °C) | self-splicing fitness (ln) (37 °C)
53 | AGCCAGCAAUAUUACGUCGC | -3.44 ± 0.35 | -2.74 ± 0.21
54 | AGCCAGCAAUAUUACGUGGU | -3.52 ± 0.14 | -3.58 ± 0.2
55 | AGCCAGCAAUAUUACGUUUC | -3.43 ± 0.18 | –
56 | AGCGAGCAAUAUUACGAACU | -2.3 ± 0.42 | -1.17 ± 0.29
57 | AGCGAGCAAUAUUACGAAGU | -3.59 ± 0.29 | -1.57 ± 0.21
58 | AGCGAGCAAUAUUACGACAU | -1.32 ± 0.015 | -0.624 ± 0.034
59 | AGCGAGCAAUAUUACGAGCU | -3.17 ± 0.24 | -2.49 ± 0.22
60 | AGCGAGCAAUAUUACGAUUA | -2.78 ± 0.23 | -2.15 ± 0.23
61 | AGCGAGCAAUAUUACGCACA | -2.76 ± 0.29 | -1.06 ± 0.18
62 | AGCGAGCAAUAUUACGCAGG | -2.43 ± 0.24 | –
63 | AGCGAGCAAUAUUACGCAUA | – | -1.77 ± 0.24
64 | AGCGAGCAAUAUUACGCAUG | -3.33 ± 0.22 | -1.48 ± 0.18
65 | AGCGAGCAAUAUUACGCAUU | -2.63 ± 0.24 | -2.04 ± 0.2
66 | AGCGAGCAAUAUUACGCUUU | – | -2.89 ± 0.27
67 | AGCGAGCAAUAUUACGGAUU | – | -1.96 ± 0.35
68 | AGCGAGCAAUAUUACGGCUC | -3.06 ± 0.34 | -2.06 ± 0.45
69 | AGCGAGCAAUAUUACGGGCU | – | -1.59 ± 0.24
70 | AGCGAGCAAUAUUACGGUAC | -3.58 ± 0.36 | –
71 | AGCGAGCAAUAUUACGGUGA | -3.59 ± 0.21 | -2.77 ± 0.15
72 | AGCGAGCAAUAUUACGGUUU | -2.1 ± 0.18 | -0.574 ± 0.15
73 | AGCGAGCAAUAUUACGUGCU | -4.05 ± 0.29 | -1.41 ± 0.23
74 | AGCGAGCAAUAUUACGUUGG | -2.04 ± 0.12 | -3.5 ± 0.46
75 | AGCUAGCAAUAUUACGAAAA | -3.04 ± 0.38 | -1.66 ± 0.23
76 | AGCUAGCAAUAUUACGAAUU | -1.74 ± 0.11 | -1.14 ± 0.13
77 | AGCUAGCAAUAUUACGACCG | -1.53 ± 0.1 | -1.06 ± 0.13
78 | AGCUAGCAAUAUUACGAGAC | -2.16 ± 0.24 | -2.14 ± 0.31

From the supplement of paper PMC7877785
